A short description of data set [1]: UV-Vis absorption spectroscopy of Ni coordination. It counts as binding. The protocol: UV-Vis absorption spectra were used to measure the concentration of the PRL-1 protein. Briefly, the concentrations of purified PRL-1 analogs were measured at 280 nm and calculated using an extinction coefficient of 19420 M^−1 cm^−1. Because of possible metal-protein absorption interferences in the high 200 nm region, the validity of the UV-Vis quantification method was confirmed by the Bradford method. Spectra of PRL-1 analogs at concentrations of 10, 5, 2.5, and 1.25 mg/mL were collected on a Cary 100 UV-Vis spectrophotometer from 800 to 200 nm. […] The resulting spectra were resolved and peak positions were evaluated using GRAMS/AI 7.00 software. Three methods were aimed at metal displacement. In the first, PRL-1-WT (e.g., wild type) samples were reduced using 20 mM β-mercaptoethanol (BME), and imidazole was added to a concentration of 10 mM. For […] protein samples, this corresponds to […] solution excess of BME to compete with the two C-terminal cysteine thiols and a 200-fold solution excess of imidazole to compete with the single C-terminal histidine imidazole side chain. New baselines were taken and the spectra recalculated. In the second method, baselines were recalculated for buffer containing 100 μM EDTA, and the spectrum for the PRL-1-WT sample that was exchanged ten million fold in 100 μM EDTA was recorded. […]

A short description of data set [2]: Metal displacement from Ni-purified PRL-1 followed by UV-Vis (BME, imidazole, EDTA, guanidinium hydrochloride/heat). Type of data set: physicochemical. The protocol:
UV-Vis absorption spectra were used to measure the concentration of the PRL-1 protein. Briefly, the concentrations of purified PRL-1 analogs were measured at 280 nm and calculated using an extinction coefficient of 19420 M^−1 cm^−1. Because of possible metal-protein absorption interferences in the high 200 nm region, the validity of the UV-Vis quantification method was confirmed by the Bradford method. Spectra of PRL-1 analogs at concentrations of 10, 5, 2.5, and 1.25 mg/mL were collected on a Cary 100 UV-Vis spectrophotometer from 800 to 200 nm. […] The resulting spectra were resolved and peak positions were evaluated using GRAMS/AI 7.00 software. Three methods were aimed at metal displacement. In the first, PRL-1-WT (e.g., wild type) samples were reduced using 20 mM β-mercaptoethanol (BME), and imidazole was added to a concentration of 10 mM. For 0.5 mM protein samples, this corresponds to 400-fold solution excess of BME to compete with the two C-terminal cysteine thiols and a 200-fold solution excess of imidazole to compete with the single C-terminal histidine imidazole side chain. New baselines were taken and the spectra recalculated. In the second method, baselines were recalculated for buffer containing 100 μM EDTA, and the spectrum for the PRL-1-WT sample that was exchanged ten million fold in 100 μM EDTA was recorded. Finally, 10 mg/mL protein samples were denatured in 5.6 M guanidinium hydrochloride and heated to 90° C., new baselines were taken, and the spectra were collected at 0, 2, 4 and 6 hrs.

Data set [3] can be described thus: ICP-MS of metal bound to purified PRL-1 variants (Ni). As to conditions: for Ni bound (ICP-MS): PRL-1 variants analyzed in parallel, Ni-IMAC purified. Type of data set: binding. On the procedure:
(§1) ICP-MS was used to characterize the bound metal. Briefly, purified protein samples were digested in concentrated nitric acid in PFA microcentrifuge tubes (Savillex, #s 7240, 7241) at 68±1° C. for 16.5±0.7 hours. Based on protein quantification prior to digestion, the sample was then diluted to 1.5 μM in 20 mM ammonium bicarbonate, pH 8.2, filtered through a 0.2 μm nylon filter, and injected into a VG Elemental VGII+XS Inductively-Coupled Plasma-Mass Spectrometer fitted with a microconcentric nebulizer. A minimum of two separately prepared samples were analyzed for each protein variant. Each sample was scanned twice and standards were run before, between, and after each sample scan. Drift was monitored during washes between scans of both sample and standard injections.
To investigate our hypothesis that the chromophore arises from protein abstraction of the metal from the charged IMAC matrix, samples were subjected to ICP-MS for semi-quantitative analysis. As extensive washing is used to remove background metals, the values obtained from this method inherently underestimate the amount of metal bound, but can be used to assess the relative affinity of different metals for the protein. Additionally, to identify an endogenous metal ligand that may have been bound to PRL-1 during expression in the cells, ICP-MS was used to look for the presence of a transition metal from the first two rows in the periodic table as well as other common biologically relevant metals. […] On average 500 μM Ni-purified protein samples were digested in nitric acid for 16 h at 70° C. were determined to contain approximately 180 μM Ni, yielding a Ni to protein stoichiometry of 1:2.7+/−0.7. Zn was also detected in the Ni-purified samples at approximately 60 μM. […] Because ICP-MS analysis is conducted in a flow of Ar and the most abundant isotope of Ar has the same mass as Ca, Ca binding cannot be determined from the primary mass signal. Nonetheless, because a much higher amount of Ca was present in the cell culture media compared to Zn and yet the ICP-MS signal corresponds largely to zinc, the protein is unlikely to bind calcium.

Data set [4] can be described thus: ICP-MS of metal bound to purified PRL-1 (Zn). Type of data set: binding. On the procedure:
as §1
To investigate our hypothesis that the chromophore arises from protein abstraction of the metal from the charged IMAC matrix, samples were subjected to ICP-MS for semi-quantitative analysis. […] On average 500 μM Ni-purified protein samples were digested in nitric acid for 16 h at 70° C. were determined to contain approximately 180 μM Ni, yielding a Ni to protein stoichiometry of 1:2.7+/−0.7. Zn was also detected in the Ni-purified samples at approximately 60 μM. […]

Data set [5] can be described thus: Solubility of metal-free protein. As to conditions: metal-free (apo) protein. Type of data set: physicochemical.

These results are taken from patent US8110402B2, “Metal abstraction peptide (MAP) tag and associated methods” (University of Kansas, priority 2008, dated 2012).

Residue numbers refer to the chain shown, from its start. Numbers in names are those of the source. Where a SMILES comes first, the peptide text is derived from it. [ ]: non-standard residue; d: D form.

`NC(=O)C[C@@H](N)C(=O)N[C@H](CS)C(=O)N[C@H](CS)C(=O)O` [NCC] (H-[dN]-[dC]-[dC]-OH): in data set [1] (synthetic tripeptides), the “absorbance spectrum after incubation with metal-charged IMAC resin” value is recorded as “mimics that observed for the peptide-metal complex embedded in PRL-1”.

B1: PRL-1: recombinant wild-type human PRL-1 protein containing the C-terminal NCC motif (protein, UniProt Q93096 1-170, looked up)
Protein tyrosine phosphatase …: MARMNRPAPVEVTYKNMRFLITHNPTNATLNKFIEELKKYGVTTIVRVCEATYDTTLVEKEGIHVLDWPFDDGAPPSNQIVDDWLSLVKIKFREEPGCCIAVHCVAGLGRAPVLVALALIEGGMKYEDAVQFIRQKRRGAFNSKQLLYLEKYRPKMRLRFKDSNGHRNNC
In the case of B1, the “loss of peaks at 318, 421 and 526 nm (Ni release)” value in data set [2] (5.6 M guanidinium hydrochloride at 90° C.) was “only gradually disappear over 6 hrs”. Moreover, in data set [2] (Ni-purified), the “effect of 10 mM imidazole on absorption profile” value is “no effect” and the “effect of ten million-fold exchange into 100 μM EDTA on spectrum” value is “little effect”. Also, in data set [2] (Ni-purified, pH 7.4), the “effect of 20 mM BME on absorption profile” value is listed as “did not alter”. Moreover, in data set [2] (pH 7.4), the “reversibility of Ni binding” value is listed as “irreversible”. Moreover, in data set [3], the “Ni bound (ICP-MS)” value was “approximately 120 μM”. The “Ni content (ICP-MS)” value in data set [3] (on average 500 μM Ni-purified protein, nitric acid digest 16 h at 70° C.) is given as “approximately 180 μM”. In data set [4] (Ni-purified samples), the “Zn detected (ICP-MS)” value was “approximately 60 μM”. The “Zn present (ICP-MS)” value in data set [4] (purified using Zn-IMAC) is 270 µM.

B2: PRL-1-H166A: PRL-1 mutant with His166 of the NGH motif replaced by Ala (protein, UniProt Q93096 1-170, looked up, variant H166A)
Protein tyrosine phosphatase …: B1 Protein tyrosine phosphatase … with H166A
In the case of B2, the “decrease in signal by absorption spectroscopy” value in data set [1] (relative to wild-type PRL-1, Ni-purified) is recorded as 20%. Further, in data set [3], the “Ni bound (ICP-MS)” value is approximately 60 µM.

B3: C170S: PRL-1 mutant with Cys170 replaced by Ser (protein, UniProt Q93096 1-170, looked up, variant C170S)
Protein tyrosine phosphatase …: B1 Protein tyrosine phosphatase … with C170S
On to B3, for which the “Ni bound (ICP-MS)” value in data set [3] is listed as “No Ni was detected”.

B4: Apo PRL-1: PRL-1 protein without bound metal (protein, UniProt Q93096 1-170, looked up)
Protein tyrosine phosphatase …: B1 Protein tyrosine phosphatase …
modifications: apo form, no bound metal
On to B4, for which the solubility entry in data set [5] is recorded as “poorly soluble”.
